# Data published in patent US12404345B2, “Humanized antibodies against iRHOM2” (SCIRHOM GMBH, priority 2021, dated 2025).
# T1: human iRhom2 (Homo sapiens, UniProt Q6PJF5)
# T1 construct: MEF-DKO-hiR2-FL-WT-T7 cells stably expressing human iRhom2 full length wild type; expressed in transfected cells; host or cells: immortalized iRhom1/2-/- double knockout mouse embryonic fibroblasts, pMSCV retroviral infection
# T1 sequence (Q6PJF5 1-856): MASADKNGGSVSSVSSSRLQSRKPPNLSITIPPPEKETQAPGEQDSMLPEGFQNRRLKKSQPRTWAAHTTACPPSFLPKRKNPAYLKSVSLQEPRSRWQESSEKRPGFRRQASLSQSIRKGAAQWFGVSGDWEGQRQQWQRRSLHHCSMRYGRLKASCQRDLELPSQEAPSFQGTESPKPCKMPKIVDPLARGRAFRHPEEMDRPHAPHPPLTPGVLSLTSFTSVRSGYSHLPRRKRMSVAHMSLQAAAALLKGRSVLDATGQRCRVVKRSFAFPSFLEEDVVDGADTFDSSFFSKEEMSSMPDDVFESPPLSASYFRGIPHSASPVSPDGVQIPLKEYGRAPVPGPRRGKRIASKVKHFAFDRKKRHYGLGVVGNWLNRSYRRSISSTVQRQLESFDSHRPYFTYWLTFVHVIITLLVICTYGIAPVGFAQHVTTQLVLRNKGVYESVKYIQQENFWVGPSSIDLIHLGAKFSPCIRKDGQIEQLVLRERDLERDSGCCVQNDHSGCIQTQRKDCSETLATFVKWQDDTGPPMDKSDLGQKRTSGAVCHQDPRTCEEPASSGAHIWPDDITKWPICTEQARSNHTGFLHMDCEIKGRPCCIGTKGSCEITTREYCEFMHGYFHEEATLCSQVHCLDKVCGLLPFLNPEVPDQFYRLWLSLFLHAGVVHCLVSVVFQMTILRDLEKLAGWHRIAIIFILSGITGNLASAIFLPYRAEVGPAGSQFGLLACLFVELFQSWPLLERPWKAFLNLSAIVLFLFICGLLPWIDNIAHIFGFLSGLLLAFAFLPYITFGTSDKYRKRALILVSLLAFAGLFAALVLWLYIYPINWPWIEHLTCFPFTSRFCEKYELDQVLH
# Biological target: T1, human iRhom2
# Assay: FACS binding to MEF-DKO-hiR2-FL-WT-T7 cells
# Conditions: antibody at 3 μg/ml
# Source text: Next, immortalized iRhom1/2−/− DKO MEFs were reconstituted with a tagged form of human iRhom2 to test target recognition of humanized antibodies of the invention. Additionally, iRhom1/2−/− DKO MEFs stably expressing a tagged form of mouse iRhom2 were generated in order to determine cross-reactivity of the humanized antibodies 16-B-03, 16-B-05, 16-B-07, 23-B-04, 42-B-02 and 42-B-04 of the invention with the mouse orthologue of iRhom2.
# In brief, on day 1, Phoenix-ECO cells (American Type Culture Collection, USA) were seeded on 6-well tissue culture plates (Greiner, Germany) in standard growth medium at 8×10^5 cells per well and kept overnight at 37° C., 5% CO2. On day 2, the medium was replaced by fresh medium supplemented with chloroquine (Sigma-Aldrich, USA) at a final concentration of 25 μM. Applying the calcium phosphate method, cells were transfected with 2 μg/ml of pMSCV (Clontech, USA) empty vector, pMSCV-hiR2-FL-WT-T7 encoding human iRhom2 full length wild type C-terminally tagged with 3 consecutive copies of the T7 epitope (MASMTGGQQMG) or pMSCV-miR2-FL-WT-T7 encoding mouse iRhom2 full length wild type C-terminally tagged with 3 consecutive copies of the T7 epitope, and were kept at 37° C., 5% CO2. […]
molecule,measurement,value
"16-B-03: humanized antibody binding human iRhom2; HCVD SEQ ID NO 1, LCVD SEQ ID NO 5 (antibody, V domains shown, antibody sequences) VH: QVTLRESGPALVKPTQTLTLTCTFSGFSLSTFALGVGWIRQPPGKALEWLAHIWWDDDKYYNPALKSRLTISKDTSKNQVVLTITNMDPVDTATYYCARITTYYYGMDYWGQGTLVTVSS VL: EIVMTQSPDFQSVTPKEKVTITCRASQSIGNHLHWYQQKPDASPKLLIKYASQSISGVPSRFSGSGSGTDFTLTINSLEAEDAATYFCQQSYQWPLTFGQGTKLEIK",binding to the human iRhom2 variant on MEF-DKO-hiR2-FL-WT-T7 cells,strong binding
